As usually defined, the Kd is the free concentration of one partner at which half of the binding sites on the other are occupied at equilibrium, for simple one-to-one binding.

Where a chain is given by its changes, count along the chain named. Square brackets hold non-standard residues; d marks the D form. Primed or numbered codes have the meaning given here. Ends that are not written are not given here. Peptide text beside a SMILES is read from it. FITC′ = fluorescein isothiocyanate label; pT = C[C@@H](OP(=O)(O)O)[C@H](N)C(=O)O; pS = N[C@@H](COP(=O)(O)O)C(=O)O

One assay addresses T1, hsNbs1(384) (Homo sapiens, UniProt O60934).
T1 construct: The N-terminal 384 residues of homo sapiens Nbs1 (hsNbs1(384) containing the FHA-BRCT1-BRCT2 domains); made in house; host or cells: E. coli BL21(DE3) pLacI
T1 sequence (O60934 1-384): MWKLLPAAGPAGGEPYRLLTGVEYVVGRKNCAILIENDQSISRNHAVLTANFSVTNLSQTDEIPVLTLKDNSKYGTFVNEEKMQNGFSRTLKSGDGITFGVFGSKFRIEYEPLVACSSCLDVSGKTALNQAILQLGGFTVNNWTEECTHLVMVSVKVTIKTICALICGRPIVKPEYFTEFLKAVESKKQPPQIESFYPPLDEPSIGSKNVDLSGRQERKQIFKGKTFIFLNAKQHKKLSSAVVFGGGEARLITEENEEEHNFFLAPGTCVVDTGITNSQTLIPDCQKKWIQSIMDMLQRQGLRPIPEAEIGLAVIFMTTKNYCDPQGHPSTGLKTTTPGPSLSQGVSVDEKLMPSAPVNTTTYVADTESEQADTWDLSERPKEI
Briefly: Fluorescence polarization (FP) binding of FITC-labeled phosphopeptides to hsNbs1(384). The following applies: wild-type hsNbs1(384); for binding to Nbs1(384), in words: FP assay. On the procedure: Figure 4 Binding of FITC-labeled peptides to hsNbs1(384). Solid lines with filled data markers show normalized fluorescence polarization of the following peptides (see Table 1 for peptide sequences) as a function of the concentration of hsNbs1(384) corresponding to: CtIP-pS347 (gray); CtIP-pT847 (blue); FANCJ (green); CtIP-859 (orange); ChK2-pT68 (yellow). FP studies were performed at room temperature in 25 mM HEPES (pH 7.4), 150 mM NaCl, 1 mM EDTA, 2 mM DTT, 0.05% Tween20, 0.1% BSA after a 15-min incubation period. The data points were fit to a single-site non-cooperative model.
Phosphopeptide-protein interactions were measured by a fluorescence polarization (FP) assay. 100 nM FITC-labeled phosphopeptides were incubated at room temperature for 15 min with the indicated concentrations of hsNbs1(384) in FP buffer composed of 25 mM HEPES, 150 mM NaCl, 1 mM EDTA, 2 mM DTT, 0.05% Tween20, 0.1% BSA, pH 7.4 prior to the measurement of fluorescence polarization (POLARstar Omega microplate reader, BMG Labtech). All samples were prepared in a 96-well black flat-bottomed polypropylene microplate and each well contained 50 µL. Each well was recorded by 100 flashes with an excitation wavelength of 485 nm, and detection of emission at 520 nm. Data for the interaction of a phosphopeptide with hsNbs1(384) were analyzed using non-linear fitting with a one-site total binding model. All Kd values were determined in triplicate, and reported as mean ± standard deviation. All phosphopeptides used were synthesized by GenScript.

Assay [1] has as its target T2, hsNbs1(384), the N-terminal 384 residues of homo sapiens Nbs1 containing the FHA-BRCT1-BRCT2 domains (human, UniProt O60934 1-384).
T2 construct: gene optimised for E. coli, cloned into pET30a (NdeI/HindIII); also called wt; source: E. coli BL21(DE3) pLacI, purified (Ni-NTA, HiTrap Q, Superdex 75)
T2 sequence (looked up): T1 sequence (O60934 1-384)
Briefly: fluorescence polarisation; 100 nM FITC-labeled phosphopeptide with increasing hsNbs1(384); room temperature, 15 min incubation; 25 mM HEPES pH 7.4, 150 mM NaCl, 1 mM EDTA, 2 mM DTT, 0.05% Tween20, 0.1% BSA; one-site model. The following applies: both partners purified. A general note: Polarisation of emitted light reports the rotation of a fluorescent probe.

Assay [2] deals with T3, hsNbs1(384)(R28S,K29S,R43A) triple mutant (human, UniProt O60934 1-384, R28S | K29S | R43A).
T3 construct: source: E. coli BL21(DE3) pLacI, purified as the wild type
T3 sequence (looked up): T1 sequence (O60934 1-384) with R28S, K29S, R43A
Described as above. The following applies: both partners purified.

For “DPYAG(pSpT)DENTDSEEHQE [XRCC1 pS518,pT519, FITC-labeled XRCC1 phosphopeptide with consecutively phosphorylated pSer518-pThr519]”, the “binding to Nbs1(384), in words” value on hsNbs1(384) is on record as “no interaction”. Consider “TRVS[pS]PVFGAT [CtIP pS327, FITC-labeled CtIP pSer327 peptide that targets the tandem BRCA1 BRCT domains]”, for which the “binding to Nbs1(384), in words” value on hsNbs1(384) is recorded as “does not bind”. For `CC(C)C[C@H](NC(=O)[C@H](CCC(=O)O)NC(=O)[C@H](CC(=O)O)NC(=O)[C@H](CCC(=O)O)NC(=O)[C@@H](NC(=O)[C@H](CC(=O)O)NC(=O)CNC(=O)[C@H](COP(=O)(O)O)NC(=O)[C@H](CC(=O)O)NC(=O)[C@H](CCC(=O)O)NC(=O)[C@H](C)NC(=O)CNC(=O)[C@H](CC(N)=O)NC(=O)[C@H](CC(=O)O)NC(=O)[C@H](CCC(N)=O)NC(=O)CNC(=O)[C@H](CCC(=O)O)NC(=O)[C@H](CO)NC(=O)[C@H](CCC(N)=O)NC(=O)[C@@H](NC(=O)CNC(=O)[C@@H](N)CCC(=O)O)C(C)C)[C@@H](C)OP(=O)(O)O)C(=O)N[C@@H](CCCNC(=N)N)C(=O)O` (H-EGVQSEGQDNGAED[pS]GD[pT]EDELR-OH), the “difference in Kd between N-terminal and C-terminal fluorescein-tagged XRCC1 pS485,pT488 peptides” value at hsNbs1(384) (FP, Kd 35 µM vs 4.5 µM) is listed as “eightfold”.

B1: Chk2 pT68 phosphopeptide SLETVS(pT)QELYSIPED with C-terminal K/FITC (peptide)
peptide: SLETVS[pT]QELYSIPEDK(FITC′)
notes: Checkpoint 2 kinase (Chk2), stretch around pT68; added C-terminal lysine that carries FITC (footnote b: C-terminal K/FITC); source: synthetic peptide (GenScript)
Take B1: binding in assay [1] was put at a Kd of 98.7 µM.

B2: CtIP pS347 phosphopeptide GLDLNTSL(pS)PSLLQPGKKK with C-terminal K/FITC (peptide)
peptide: GLDLNTSL[pS]PSLLQPGKKKK(FITC′)
notes: CtIP, human, stretch around pS347; added C-terminal lysine that carries FITC (footnote b: C-terminal K/FITC); also called CtIP pSer347 peptide; pSer347 peptide; source: synthetic peptide (GenScript)
B2: binding in assay [1] was put at a Kd of 2.64 µM.

B3: CtIP pT859 phosphopeptide WEVGFPS(pT)QTCMERGYI with C-terminal K/FITC (peptide)
peptide: WEVGFPS[pT]QTCMERGYIK(FITC′)
notes: CtIP, human, stretch around pT859; added C-terminal lysine that carries FITC (footnote b: C-terminal K/FITC); also called CtIP-859; source: synthetic peptide (GenScript)
For the molecule B3, the Kd in assay [1] came to 90.5 µM.

B4: XRCC1 pS485,pT488 phosphopeptide EGVQSEGQDNGAED(pS)GD(pT)EDELR with C-terminal K/FITC (peptide)
peptide: EGVQSEGQDNGAED[pS]GD[pT]EDELRK(FITC′)
notes: XRCC1, human, stretch around pS485 and pT488; added C-terminal lysine that carries FITC (footnote b: C-terminal K/FITC); also called XRCC1 pSer485-Gly-Asp-pThr488 peptide containing a C-terminal fluorescein; source: synthetic peptide (GenScript)
For B4, in assay [1], the Kd turned out to be 4.5 µM.

B5: MDC1 pS329,pT331 phosphopeptide FITC-GG-FID(pS)D(pT)DAEEE (peptide)
peptide: {FITC′}-GGFID[pS]D[pT]DAEEE
notes: Gly-Gly between the N-terminal FITC and the peptide; MDC1, human, stretch around pS329 and pT331; also called hsMDC1; source: synthetic peptide (GenScript)
As to B5, the results for the Kd in assay [1] and in assay [2] were 0.65 µM and 1.47 µM, respectively.

B6: XRCC1 pS518,pT519 phosphopeptide FITC-GG-DPYAG(pSpT)DENTDSEEHQE (peptide)
peptide: {FITC′}-GGDPYAG[pS][pT]DENTDSEEHQE
notes: Gly-Gly between the N-terminal FITC and the peptide; XRCC1, human, stretch around pS518 and pT519; also called XRCC1 pSer518-pThr519 phosphopeptide; source: synthetic peptide (GenScript)
In assay [1], B6 had a Kd greater than 65 µM.

B7: FANCJ pT1133 phosphopeptide EDESIYF(pT)PELYDPEIE with C-terminal K/FITC (peptide)
peptide: EDESIYF[pT]PELYDPEIEK(FITC′)
notes: FANCJ helicase, stretch around pT1133; added C-terminal lysine that carries FITC (footnote b: C-terminal K/FITC); A shorter FANCJ phosphopeptide (SIYFpTPELYD) stands in the cited TopBP1 BRCT7/8 structure PDB 3AL3; also called FANCJ pThr1133 phosphopeptide; FANCJ phosphopeptide; source: synthetic peptide (GenScript)
In the case of B7, in assay [1], the Kd is 26.9 µM.

B8: CtIP pT312,pT315 phosphopeptide TEDSLRFSDS(pT)SK(pT)PPQEELP with C-terminal K/FITC (peptide)
peptide: TEDSLRFSDS[pT]SK[pT]PPQEELPK(FITC′)
notes: CtIP, human, stretch around pT312 and pT315; added C-terminal lysine that carries FITC (footnote b: C-terminal K/FITC); also called test peptide containing the pThr312-Ser-Lys-pThr315; source: synthetic peptide (GenScript)
As to B8, in assay [1], the Kd was found to be 90 µM.

B9: CtIP pT847 phosphopeptide FITC-GG-RYIPPN(pT)PENFWEVG (peptide)
peptide: {FITC′}-GGRYIPPN[pT]PENFWEVG
notes: Gly-Gly between the N-terminal FITC and the peptide; CtIP, human, stretch around pT847; source: synthetic peptide (GenScript)
B9 displayed a Kd in assay [1] of 22 µM.

B10: hsMDC1 phosphopeptide FITC-GG-PFGFID(pS)D(pT)DVEEER (peptide)
peptide: {FITC′}-GGPFGFID[pS]D[pT]DVEEER
notes: Gly-Gly between the N-terminal FITC and the peptide; MDC1, human, one of the SDT repeats; also called second test peptide containing the pSer-Asp-pThr motif; source: synthetic peptide (GenScript)
B10: in assay [2], binding was characterised by a dissociation constant (Kd) of 1.6 µM.

B11: XRCC1 pS485,pT488 phosphopeptide FITC-GG-DNGAED(pS)GD(pT)EDELR (peptide)
peptide: {FITC′}-GGDNGAED[pS]GD[pT]EDELR
notes: Gly-Gly between the N-terminal FITC and the peptide; XRCC1, human, stretch around pS485 and pT488; also called XRCC1 pSer485-Gly-Asp-pThr488 peptide with an N-terminal fluorescein tag; source: synthetic peptide (GenScript)
As for B11, in assay [1], the affinity, expressed as Kd, was 34.8 µM.

(Values after paper PMC8079451, “Phosphopeptide interactions of the Nbs1 N-terminal FHA-BRCT1/2 domains” (Scientific Reports, 2021).)
